Among the data in patent publication US20230338465A1 (VITRUVIAE, published 2023) are EC50 values, retold here.

“And” between values parts separate entries of the source, which are not always exact repeats. Equal values may be shown once. Read-outs that look alike come from different tables or passages of the source.

Experiment in all cases: ELISA, 2.5 mM CaCl2
The target in one assay is Chikungunya Virus E1 (Chikungunya virus).
Assay [1] deals with T1, Zika Virus Envelope Protein (Zika virus).
T1 chain: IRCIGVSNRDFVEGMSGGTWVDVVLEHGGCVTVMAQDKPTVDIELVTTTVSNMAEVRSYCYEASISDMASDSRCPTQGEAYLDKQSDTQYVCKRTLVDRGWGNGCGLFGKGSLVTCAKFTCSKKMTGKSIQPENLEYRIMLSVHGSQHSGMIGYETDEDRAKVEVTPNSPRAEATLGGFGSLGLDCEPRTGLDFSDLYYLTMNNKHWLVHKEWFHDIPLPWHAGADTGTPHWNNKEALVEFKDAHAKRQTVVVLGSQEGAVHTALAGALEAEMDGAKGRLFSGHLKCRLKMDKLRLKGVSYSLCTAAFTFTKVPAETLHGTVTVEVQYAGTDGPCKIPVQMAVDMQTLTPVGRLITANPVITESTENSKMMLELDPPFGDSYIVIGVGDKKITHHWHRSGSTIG

Assay [2] has as its target T1, Zika Virus Envelope Protein.

B1: VP025-CT (co-transfected product of genes TM-G4-A-DC and CT-G4-B-DC, heterodimer mixture) (Fc fusion)
chain 1: SVKVGGEAGPSVTLPCHYSGAVTSMCWNRGSCSLFTCQNGIVWTNGTHVTYRKDTRYKLLGDLSRRDVSLTIENTAVSDSGVYCCRVEHRGWFNDMKITVSLEIVGGGGSGGGGSGGGGSKYGPPCPPCPAPEAAGGPSVFLFPPKPKDTLMISRTPEVTCVVVDVSQEDPEVQFNWYVDGVEVHNAKTKPREEQFNSTYRVVSVLTVLHQDWLNGKEYKCAVSNKGLPSSIEKTISKCKGQPREPQVYTLPPSQEEMTKNQVSLTCLVKGFYPSDIAVEWESNGQPENNYKTTPPVLDSDGSFFLYSRLTVDKSRWQEGNVFSCSVMHEALHNHYTQKSLSLSLGK
chain 2: ERLCHPCPWEWTFFQGNCYFMSNSQRNWHDSITACKEVGAQLVVIKSAEEQNFLQLQSSRSNRFTWMGLSDLNQEGTWQWVDGSPLLPSFKQYWNRGEPNNVGEEDCAEFSGNGWNDDKCNLAKFWICKKSAASCSGGGGSGGGGSGGGGSKYGPPCPPCPAPEAAGGPSVFLFPPKPKDTLMISRTPEVTCVVVDVSQEDPEVQFNWYVDGVEVHNAKTKPREEQFNSTYRVVSVLTVLHQDWLNGKEYKCAVSNKGLPSSIEKTISKCKGQPREPQVYTLPPSQEEMTKNQVSLTCLVKGFYPSDIAVEWESNGQPENNYKTTPPVLDSDGSFLLYSKLTVDKSRWQEGNVFSCSVMHEALHNHYTQKSLSLSLGK
notes: also called VP025-CT (heterodimer mixture)
Consider B1, for which the concentration giving a half-maximal response (EC50) (in general, the concentration at which the effect is half-maximal) with Chikungunya Virus E1 is 10.2 µg/mL and 122 nM.

B2: VP019-F2 (multimer fraction F2 of VP019, V-TIM1-1 with V-IGG4-ADC-A-Fc) (Fc fusion)
chain: B1 chain 1
notes: also called TM-G4-A-DC; VIT-307
For the molecule B2, the EC50 in assay [1] came to 1 µg/mL; in assay [2], 12.2 nM.

B3: VP020 (V-CTLD-1 with V-IGG4-ADC-B-Fc) (Fc fusion)
chain: B1 chain 2
notes: also called CT-G4-B-DC; VIT-308
B3: the EC50 was determined as 7.4 µg/mL in assay [1] and 85.1 nM in assay [2].
